{
  "source": "IntAct's records for PubMed 17721439",
  "key": {"wnk4_human WNK4 [1]": {"target": "wnk4_human WNK4 (UniProt Q96J92)", "sequence (Q96J92 whole entry)": "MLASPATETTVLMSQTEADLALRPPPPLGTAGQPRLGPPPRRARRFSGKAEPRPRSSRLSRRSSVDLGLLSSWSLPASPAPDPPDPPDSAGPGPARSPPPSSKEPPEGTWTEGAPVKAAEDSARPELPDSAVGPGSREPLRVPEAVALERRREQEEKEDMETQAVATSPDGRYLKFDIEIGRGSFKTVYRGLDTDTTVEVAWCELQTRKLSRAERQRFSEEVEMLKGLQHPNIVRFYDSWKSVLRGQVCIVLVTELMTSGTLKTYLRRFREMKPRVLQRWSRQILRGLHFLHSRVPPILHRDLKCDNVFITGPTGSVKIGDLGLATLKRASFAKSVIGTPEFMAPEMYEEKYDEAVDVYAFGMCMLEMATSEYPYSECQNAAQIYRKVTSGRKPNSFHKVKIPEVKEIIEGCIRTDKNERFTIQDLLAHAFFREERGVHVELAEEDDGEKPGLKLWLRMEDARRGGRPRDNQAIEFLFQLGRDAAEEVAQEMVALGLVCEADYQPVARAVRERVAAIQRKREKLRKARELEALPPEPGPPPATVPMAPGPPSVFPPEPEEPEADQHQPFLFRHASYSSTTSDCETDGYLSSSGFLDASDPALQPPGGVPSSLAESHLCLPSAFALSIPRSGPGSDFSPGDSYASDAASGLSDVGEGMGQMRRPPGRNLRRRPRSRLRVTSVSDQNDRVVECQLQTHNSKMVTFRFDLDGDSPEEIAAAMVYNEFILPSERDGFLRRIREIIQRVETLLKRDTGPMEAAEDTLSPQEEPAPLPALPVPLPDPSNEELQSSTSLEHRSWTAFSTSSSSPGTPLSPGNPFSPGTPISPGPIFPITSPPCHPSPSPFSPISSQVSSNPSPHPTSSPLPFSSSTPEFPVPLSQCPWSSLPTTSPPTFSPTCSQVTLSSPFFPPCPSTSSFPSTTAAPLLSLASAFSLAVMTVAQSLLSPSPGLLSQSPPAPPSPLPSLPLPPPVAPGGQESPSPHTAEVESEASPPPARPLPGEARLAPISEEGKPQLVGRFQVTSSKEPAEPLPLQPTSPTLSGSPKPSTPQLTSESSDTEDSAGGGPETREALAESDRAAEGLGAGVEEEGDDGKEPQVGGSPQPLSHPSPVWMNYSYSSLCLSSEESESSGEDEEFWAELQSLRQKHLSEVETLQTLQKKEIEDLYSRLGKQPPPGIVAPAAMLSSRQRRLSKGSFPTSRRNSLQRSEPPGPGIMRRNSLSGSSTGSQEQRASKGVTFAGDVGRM"}, "wnk4_human WNK4 [2]": {"target": "wnk4_human WNK4 (UniProt Q96J92)", "remark": "listed apart in the source"}, "wnk1_human WNK1 [3]": {"target": "wnk1_human WNK1 (UniProt Q9H4A3)", "sequence (Q9H4A3 whole entry, looked up)": "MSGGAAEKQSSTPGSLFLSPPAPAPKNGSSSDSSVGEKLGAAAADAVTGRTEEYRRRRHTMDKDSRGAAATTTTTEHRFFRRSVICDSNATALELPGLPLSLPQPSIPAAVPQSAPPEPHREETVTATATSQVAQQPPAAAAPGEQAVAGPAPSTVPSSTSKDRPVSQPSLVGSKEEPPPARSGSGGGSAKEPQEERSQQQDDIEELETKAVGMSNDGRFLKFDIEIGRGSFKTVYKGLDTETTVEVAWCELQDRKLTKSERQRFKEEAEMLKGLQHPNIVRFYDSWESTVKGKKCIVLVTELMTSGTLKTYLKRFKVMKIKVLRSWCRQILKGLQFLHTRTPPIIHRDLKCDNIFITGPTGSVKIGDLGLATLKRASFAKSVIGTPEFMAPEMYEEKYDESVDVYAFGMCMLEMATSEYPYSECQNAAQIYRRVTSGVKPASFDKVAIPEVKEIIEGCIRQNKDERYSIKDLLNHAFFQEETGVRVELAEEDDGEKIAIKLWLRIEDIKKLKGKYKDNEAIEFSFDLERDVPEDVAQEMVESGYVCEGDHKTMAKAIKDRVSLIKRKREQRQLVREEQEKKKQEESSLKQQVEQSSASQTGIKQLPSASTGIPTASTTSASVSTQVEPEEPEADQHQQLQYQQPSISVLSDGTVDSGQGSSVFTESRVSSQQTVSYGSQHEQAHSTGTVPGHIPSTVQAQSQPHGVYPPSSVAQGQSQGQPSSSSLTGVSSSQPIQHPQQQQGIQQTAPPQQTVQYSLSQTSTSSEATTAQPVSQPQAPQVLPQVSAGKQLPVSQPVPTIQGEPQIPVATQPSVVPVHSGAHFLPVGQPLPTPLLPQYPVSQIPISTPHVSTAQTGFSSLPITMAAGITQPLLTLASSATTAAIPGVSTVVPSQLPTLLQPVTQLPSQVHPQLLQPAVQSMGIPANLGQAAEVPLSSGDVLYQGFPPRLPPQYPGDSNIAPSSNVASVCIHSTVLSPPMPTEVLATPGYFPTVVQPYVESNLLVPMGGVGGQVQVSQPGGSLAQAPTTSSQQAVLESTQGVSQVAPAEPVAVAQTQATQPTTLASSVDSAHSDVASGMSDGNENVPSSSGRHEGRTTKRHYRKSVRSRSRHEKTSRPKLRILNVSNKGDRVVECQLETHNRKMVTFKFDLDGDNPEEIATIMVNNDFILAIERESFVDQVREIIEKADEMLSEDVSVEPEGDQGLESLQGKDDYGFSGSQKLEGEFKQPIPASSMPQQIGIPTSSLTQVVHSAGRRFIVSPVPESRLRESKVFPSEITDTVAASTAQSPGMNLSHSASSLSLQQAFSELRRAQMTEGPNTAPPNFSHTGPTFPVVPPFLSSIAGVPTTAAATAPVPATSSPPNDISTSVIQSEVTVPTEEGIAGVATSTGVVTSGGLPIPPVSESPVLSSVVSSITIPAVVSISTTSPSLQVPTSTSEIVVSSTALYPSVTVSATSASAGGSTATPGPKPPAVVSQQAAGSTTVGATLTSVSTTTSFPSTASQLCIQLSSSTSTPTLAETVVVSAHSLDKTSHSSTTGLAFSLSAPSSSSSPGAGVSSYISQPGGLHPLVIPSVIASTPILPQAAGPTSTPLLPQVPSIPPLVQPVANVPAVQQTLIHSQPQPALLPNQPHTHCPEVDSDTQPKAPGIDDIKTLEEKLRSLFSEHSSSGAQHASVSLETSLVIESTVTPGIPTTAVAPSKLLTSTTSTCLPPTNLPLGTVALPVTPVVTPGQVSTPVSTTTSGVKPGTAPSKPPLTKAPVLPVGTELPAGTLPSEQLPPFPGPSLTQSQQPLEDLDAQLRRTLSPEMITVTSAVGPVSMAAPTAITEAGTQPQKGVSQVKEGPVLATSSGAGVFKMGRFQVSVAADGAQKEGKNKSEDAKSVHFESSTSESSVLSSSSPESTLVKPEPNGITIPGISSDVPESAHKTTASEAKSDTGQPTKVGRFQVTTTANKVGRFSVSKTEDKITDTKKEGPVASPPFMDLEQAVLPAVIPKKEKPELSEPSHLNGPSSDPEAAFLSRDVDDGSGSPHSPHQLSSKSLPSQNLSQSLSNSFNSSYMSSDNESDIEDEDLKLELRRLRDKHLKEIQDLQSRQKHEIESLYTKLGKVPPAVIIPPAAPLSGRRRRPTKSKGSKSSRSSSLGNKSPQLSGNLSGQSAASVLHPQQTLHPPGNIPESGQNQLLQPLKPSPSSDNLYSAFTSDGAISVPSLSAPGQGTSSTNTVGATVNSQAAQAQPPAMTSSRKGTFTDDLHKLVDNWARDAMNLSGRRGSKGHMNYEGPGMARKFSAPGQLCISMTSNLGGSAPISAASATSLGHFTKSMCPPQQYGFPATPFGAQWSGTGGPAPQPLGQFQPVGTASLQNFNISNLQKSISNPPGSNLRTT"}, "SLC12A2 [4]": {"target": "SLC12A2 (UniProt P55011)", "sequence (P55011 whole entry)": "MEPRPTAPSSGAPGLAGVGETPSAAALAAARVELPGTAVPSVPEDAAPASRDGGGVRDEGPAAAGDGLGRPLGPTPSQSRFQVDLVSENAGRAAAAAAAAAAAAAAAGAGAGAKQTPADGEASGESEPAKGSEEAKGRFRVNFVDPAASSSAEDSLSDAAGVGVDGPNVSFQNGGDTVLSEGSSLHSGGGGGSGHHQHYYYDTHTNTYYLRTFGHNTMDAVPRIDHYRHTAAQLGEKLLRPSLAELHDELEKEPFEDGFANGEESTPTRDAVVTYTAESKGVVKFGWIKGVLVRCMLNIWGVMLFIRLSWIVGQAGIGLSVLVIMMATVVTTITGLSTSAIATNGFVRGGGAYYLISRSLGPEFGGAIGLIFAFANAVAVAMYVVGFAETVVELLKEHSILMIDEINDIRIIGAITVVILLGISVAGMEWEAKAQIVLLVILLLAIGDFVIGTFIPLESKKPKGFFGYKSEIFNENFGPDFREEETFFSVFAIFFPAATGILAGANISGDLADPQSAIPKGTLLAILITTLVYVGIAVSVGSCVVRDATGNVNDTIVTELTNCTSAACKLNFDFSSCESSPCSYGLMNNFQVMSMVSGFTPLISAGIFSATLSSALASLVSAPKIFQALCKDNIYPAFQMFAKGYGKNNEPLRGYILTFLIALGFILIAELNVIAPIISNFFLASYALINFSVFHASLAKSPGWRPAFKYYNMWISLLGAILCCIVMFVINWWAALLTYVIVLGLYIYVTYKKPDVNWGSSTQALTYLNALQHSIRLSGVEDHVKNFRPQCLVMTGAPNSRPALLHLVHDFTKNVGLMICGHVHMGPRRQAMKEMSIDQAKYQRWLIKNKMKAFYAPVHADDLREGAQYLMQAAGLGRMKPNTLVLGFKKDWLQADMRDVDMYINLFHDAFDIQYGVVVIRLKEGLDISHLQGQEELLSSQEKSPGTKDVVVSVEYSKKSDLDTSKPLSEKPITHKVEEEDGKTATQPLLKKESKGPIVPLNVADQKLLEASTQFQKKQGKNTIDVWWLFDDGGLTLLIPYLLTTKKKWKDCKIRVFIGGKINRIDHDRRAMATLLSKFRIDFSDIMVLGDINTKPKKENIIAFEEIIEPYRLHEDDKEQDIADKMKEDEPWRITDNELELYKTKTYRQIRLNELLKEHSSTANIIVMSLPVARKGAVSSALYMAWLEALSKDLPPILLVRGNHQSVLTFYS"}, "wnk4_human WNK4 [5]": {"target": "wnk4_human WNK4 (UniProt Q96J92)", "remark": "listed apart in the source"}, "wnk4_human WNK4 [6]": {"target": "wnk4_human WNK4 (UniProt Q96J92)", "remark": "listed apart in the source"}, "wnk4_human WNK4 [7]": {"target": "wnk4_human WNK4 (UniProt Q96J92)", "remark": "listed apart in the source"}, "wnk4_human WNK4 [8]": {"target": "wnk4_human WNK4 (UniProt Q96J92)", "remark": "listed apart in the source"}, "wnk4_human WNK4 [9]": {"target": "wnk4_human WNK4 (UniProt Q96J92)", "remark": "listed apart in the source"}, "SLC12A2 [10]": {"target": "SLC12A2 (UniProt P55011)", "remark": "listed apart in the source"}, "wnk4_human WNK4 [11]": {"target": "wnk4_human WNK4 (UniProt Q96J92)", "remark": "listed apart in the source"}, "wnk1_human WNK1 [12]": {"target": "wnk1_human WNK1 (UniProt Q9H4A3)", "remark": "listed apart in the source"}, "wnk4_human WNK4 [13]": {"target": "wnk4_human WNK4 (UniProt Q96J92)", "remark": "listed apart in the source"}},
  "data": [
    {"substance": "Serine/threonine-protein kinase OSR1 (Homo sapiens), O95747 A471L", "values": [
      {"measurement": "effect of a mutation on the interaction", "setting": "wnk4_human WNK4 [1]", "value": "decreasing interaction"}
    ]},
    {"substance": "Serine/threonine-protein kinase OSR1 (Homo sapiens), O95747 D449A", "values": [
      {"measurement": "effect of a mutation on the interaction", "setting": "wnk4_human WNK4 [2]", "value": "decreasing interaction"}
    ]},
    {"substance": "Serine/threonine-protein kinase OSR1 (Homo sapiens), O95747 D459A", "values": [
      {"measurement": "effect of a mutation on the interaction", "setting": "wnk1_human WNK1 [3]", "value": "disrupting interaction"},
      {"measurement": "effect of a mutation on the interaction", "setting": "SLC12A2 [4]", "value": "disrupting interaction"},
      {"measurement": "effect of a mutation on the interaction", "setting": "wnk4_human WNK4 [5]", "value": "disrupting interaction"}
    ]},
    {"substance": "Serine/threonine-protein kinase OSR1 (Homo sapiens), O95747 E446A", "values": [
      {"measurement": "effect of a mutation on the interaction", "setting": "wnk4_human WNK4 [6]", "value": "decreasing interaction"}
    ]},
    {"substance": "Serine/threonine-protein kinase OSR1 (Homo sapiens), O95747 E467A", "values": [
      {"measurement": "effect of a mutation on the interaction", "setting": "wnk4_human WNK4 [7]", "value": "disrupting interaction"}
    ]},
    {"substance": "Serine/threonine-protein kinase OSR1 (Homo sapiens), O95747 I450A", "values": [
      {"measurement": "effect of a mutation on the interaction", "setting": "wnk4_human WNK4 [8]", "value": "disrupting interaction"}
    ]},
    {"substance": "Serine/threonine-protein kinase OSR1 (Homo sapiens), O95747 L468F", "values": [
      {"measurement": "effect of a mutation on the interaction", "setting": "wnk4_human WNK4 [9]", "value": "disrupting interaction"}
    ]},
    {"substance": "Serine/threonine-protein kinase OSR1 (Homo sapiens), O95747 L473A", "values": [
      {"measurement": "effect of a mutation on the interaction", "setting": "SLC12A2 [10]", "value": "disrupting interaction"},
      {"measurement": "effect of a mutation on the interaction", "setting": "wnk4_human WNK4 [11]", "value": "disrupting interaction"},
      {"measurement": "effect of a mutation on the interaction", "setting": "wnk1_human WNK1 [12]", "value": "disrupting interaction"}
    ]},
    {"substance": "Serine/threonine-protein kinase OSR1 (Homo sapiens), O95747 R451A", "values": [
      {"measurement": "effect of a mutation on the interaction", "setting": "wnk4_human WNK4 [13]", "value": "decreasing interaction"}
    ]}
  ]
}
